Test results: patent publication US20220125907A1 (VAXCYTE, published 2022)

Biological target: the molecule itself
Assay: SEC-MALS of purified IpaB in solution (self-association)

B1: Invasion Plasmid Antigen B (IpaB), wild type, full length (other)
chain: MHNVNTTTTGLSLAKILASTELGDNTIQAGNDAANKLFSLTIADLTANKNINTTNAHSTSNILIPELKAPKSLNASSQLTLLIGNLIQILGEKSLTALTNKITAWKSQQQARQQKNLEFSDKINTLLSETEGLTRDYEKQINKLKNADSKIKDLENKINQIQTRLSELDPDSPEKKKLSREEIQLTIKKDAAVKDRTLIEQKTLSIHSKLTDKSMQLEKEIDSFSAFSNTASAEQLSTQQKSLTGLASVTQLMATFIQLVGKNNEESLKNDLALFQSLQESRKTEMERKSDEYAAEVRKAEELNRVMGCVGKILGALLTIVSVVAAAFSGGASLALADVGLALMVTDAIVQAATGNSFMEQALNPIMKAVIEPLIKLLSDAFTKMLEGLGVDSKKAKMIGSILGAIAGALVLVAAVVLVATVGKQAAAKLAENIGKIIGKTLTDLIPKFLKNFSSQLDDLITNAVARLNKFLGAAGDEVISKQIISTHLNQAVLLGESVNSATQAGGSVASAVFQNSASTNLADLTLSKYQVEQLSKYISEAIEKFGQLQEVIADLLASMSNSQANRTDVAKAILQQTTA
notes: also called WT IpaB; IpaB WT; not shown: histidine tag
- binding result: binds
